From publication PMC6581175, “Versatile Oxidase and Dehydrogenase Activities of Bacterial Pyranose 2-Oxidase Facilitate Redox Cycling with Manganese Peroxidase In Vitro” (Applied and Environmental Microbiology, 2019)
Each block holds one molecule with its values, some of them ahead of it.

Legend:
[1] = test system: CCn1c(=N[N]c2sc3cc(S(=O)(=O)O)ccc3[n+]2CC)sc2cc(S(=O)(=O)O)ccc21; assay: purified protein; conditions: pH 7.5; 30.0 °C
[2] = target: T1, KaPOx (Kitasatospora aureofaciens, UniProt A0A1E7NAU4); assay: spectrophotometric electron acceptor reduction; conditions: apparent, 30 mM D-glucose, nitrogen-bubbled solutions, 50 mM Britton-Robinson pH 7.5, 30°C, kcat per dimer
T1 construct: gene HS99_0024835
T1 sequence (A0A1E7NAU4 1-545): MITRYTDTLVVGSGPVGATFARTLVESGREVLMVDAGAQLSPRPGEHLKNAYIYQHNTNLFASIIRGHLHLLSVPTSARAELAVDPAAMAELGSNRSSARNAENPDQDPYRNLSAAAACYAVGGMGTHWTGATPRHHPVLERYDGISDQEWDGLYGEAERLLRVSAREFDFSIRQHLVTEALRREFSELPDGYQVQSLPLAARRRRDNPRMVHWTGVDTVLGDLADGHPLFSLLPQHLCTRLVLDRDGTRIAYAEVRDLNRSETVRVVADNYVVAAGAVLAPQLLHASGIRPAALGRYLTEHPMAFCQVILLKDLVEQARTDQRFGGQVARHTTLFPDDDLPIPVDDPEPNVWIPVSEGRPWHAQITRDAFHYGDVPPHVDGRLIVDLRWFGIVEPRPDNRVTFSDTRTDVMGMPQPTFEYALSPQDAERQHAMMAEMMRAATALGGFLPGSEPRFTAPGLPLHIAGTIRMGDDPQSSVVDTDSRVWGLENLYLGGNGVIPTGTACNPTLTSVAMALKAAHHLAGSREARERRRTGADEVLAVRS

[3] = substrate: O=C1O[C@H](CO)[C@@H](O)[C@H](O)[C@H]1O; assay: purified protein; type: biochemical, Kitasatospora aureofaciens; conditions: apparent, electron donor, O2 at air saturation (about 250 uM), 50 mM Britton-Robinson pH 7.5, 30°C, kcat per dimer
[4] = substrate: O=C1C=CC(=O)C=C1; assay: purified protein; conditions: apparent, electron acceptor, 30 mM D-glucose, nitrogen-bubbled solutions, 50 mM Britton-Robinson pH 7.5, 30°C, kcat per dimer
[5] = substrate: O=C1C(Cl)=CC(=Nc2ccc(O)cc2)C=C1Cl; assay: purified protein; conditions: apparent, electron acceptor, 30 mM D-glucose, nitrogen-bubbled solutions, 50 mM Britton-Robinson pH 7.5, 30°C, kcat per dimer

Molecule: KaPOx (Kitasatospora aureofaciens)
- Km [1]: 40 ± 0 µM
- Vmax [1]: 6.1 µmol/min/mg
- kcat/Km [1]: 309000 M⁻¹ s⁻¹

- Km [2]: 1030 ± 1000 µM
Molecule: Ferrocenium ion

B1: KaPOx (Kitasatospora aureofaciens) (protein)
chain: MITRYTDTLVVGSGPVGATFARTLVESGREVLMVDAGAQLSPRPGEHLKNAYIYQHNTNLFASIIRGHLHLLSVPTSARAELAVDPAAMAELGSNRSSARNAENPDQDPYRNLSAAAACYAVGGMGTHWTGATPRHHPVLERYDGISDQEWDGLYGEAERLLRVSAREFDFSIRQHLVTEALRREFSELPDGYQVQSLPLAARRRRDNPRMVHWTGVDTVLGDLADGHPLFSLLPQHLCTRLVLDRDGTRIAYAEVRDLNRSETVRVVADNYVVAAGAVLAPQLLHASGIRPAALGRYLTEHPMAFCQVILLKDLVEQARTDQRFGGQVARHTTLFPDDDLPIPVDDPEPNVWIPVSEGRPWHAQITRDAFHYGDVPPHVDGRLIVDLRWFGIVEPRPDNRVTFSDTRTDVMGMPQPTFEYALSPQDAERQHAMMAEMMRAATALGGFLPGSEPRFTAPGLPLHIAGTIRMGDDPQSSVVDTDSRVWGLENLYLGGNGVIPTGTACNPTLTSVAMALKAAHHLAGSREARERRRTGADEVLAVRS
notes: full-length synthetic gene, C-terminal 6xHis kept, N-terminal T7 tag excluded, pET-21b(+), E. coli T7 Express; no signal peptide predicted
- Km [3]: 28700 ± 2400 µM
- Vmax [3]: 0.8 µmol/min/mg
- kcat [3]: 1.8 ± 0.1 s⁻¹
- kcat/Km [3]: 60 M⁻¹ s⁻¹
- Km [4]: 80 ± 100 µM
- Vmax [4]: 12.2 µmol/min/mg
- kcat [4]: 24.9 ± 7.1 s⁻¹
- kcat/Km [4]: 311000 M⁻¹ s⁻¹
- Km [5]: 30 ± 0 µM
- Vmax [5]: 4.4 µmol/min/mg
- kcat [5]: 9.4 ± 1.1 s⁻¹
- kcat/Km [5]: 313000 M⁻¹ s⁻¹
